Measured values as given in the nanobody polyreactivity screen of Harvey et al. (2022).

Assay: yeast display, Sf9 membrane polyspecificity reagent, FACS + sequencing; frameworks hold sequencing errors
Method in brief: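 Polyreactivity labels are assigned by the sorting gate from which each nanobody was recovered. The gates were low and high (top ~1%), set on anti-HA fluorescence for expression and streptavidin fluorescence for reagent binding. Before sorting, galactose-induced (36–48 hours) yeast display cells were stained for 1 hour at 4 °C with 10% biotinylated, detergent-solubilized Sf9 membrane reagent.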

Row | Sequence | polyreactivity (PSR sort gate)
1 | QDQLVQSGGGLVQAGGSLRLSCAASGFTFYYYAMGWYRQAPGKETELVAGISKSGGITYYADSVKGRFTISRDNAKNTVYLQMNSLKPEDTAVYYCAAAAWYQFFLYRYTYEYWGQGTQVTVSS | low polyreactivity
2 | QVQLVESGAGLVQAGGSLRLSCAASGSILYINTMGWYRQAPGKERELVAAITSSGGSTYYADSVKGRFTISRDNAKNTVDLQMNSLKPEDTAVYYCAAVGYYGGYNYWGQGTQVTVSS | low polyreactivity
3 | QVQLVESGGGLVQAGGSLRLSCAASGRIFPYYAMGWYRQAPGKERELVAAISYRGTRTSYADSVKGRFTISRDNAKNTVYLQMNSLKPEDTAVYYCAAQRYFGISWPYDYWGQGTQVTVSS | high polyreactivity
4 | QVQLVESGGGLVQAGGSLRLSCAASGSIFVYYAMGWYRQAPGKERELVAAISSRGGSTYYADSVKGRFTISRDNAKNTVYLQMNSLKPEDTAVYYCAAYTLDGVNGRVLDDYWGQGTQVTVSS | low polyreactivity
5 | QVQLVESGGGLVQAGGSLRLSCAASGSTVRGYAKGWYRQAPGKERELGAAITWSGGTTYYADSVKGRFTISRDNAKTTVYLQMNSLKPEDTAVYYCAAQNWDSDPYDYWGQATQVTVSS | low polyreactivity
6 | QVQLVESGGGLVQAGGSLRLSCAASGRIFWQYAMGWYRQAPGNERELVAGITSNGGSTYYADSVKGRFTISRDNAKNTVYLQMNSLKPEDTAVYYCNKVRPGWTYEYGYWGQGTQVTVSS | high polyreactivity
7 | QVQLVESGGGLVQAGGSLRLSCAASGYTFGSYAMGWYRQAPGTERELVAAIRGSGGSTYYADSVKGRFTISRDNAKNTVYLQLNSLKPEDTAVYYGATSVRRGGRQLYNYWGQGTQVTVSS | high polyreactivity
8 | QVQLVESGGGLVQAGGSLRLSCAASGFTFLYYDMGWYRQAPGKERELVAAITSSGTSTYYADSVKGRFTISRDNAKNTVYLQMNSLKPEDTAVYYCAVLYTYAGRHRYGYWGQGTQVTVSS | high polyreactivity
9 | QVQLVESGGGLVQAGGRLRLSCAASGRILYLNAMGWYRQAPGKERELVAAITKSGGSTYYADSVKGRFTISRDNAKNTVYLQMNSLKPEDTAVYYCAAEWVYYDYWQRFLYIDYDYWGQGTHVTVSS | high polyreactivity
10 | QVQLVESGGGLVQAGGSLRLSCAASGSIFWYNAMGWYIHAPWNERELVAAITSSSGRTRYADSEKGRFTISRDNAKNTVYLQMNSLKQEDTAVYYCAVAEGYSPAYLRDYWGQGTQVTVSS | high polyreactivity
11 | QVQLVESGGGLVQAGGSLRLSCAASGRTFGYNTMGWYRQAPGKERELVATISRGGSTYYADSVKGRFTISRDNAKNTVYLQMNSLKPEDTAVYYCRYQSRFRYDYWGQGTQVTVSS | high polyreactivity
12 | QVQLVESGGGLVQAGGSLRLSCAASGFTFGKYCMGWYRQAPGKERELVAAISASGGITYYADSVKGRFTISRDNAKNTVYLQMNSLKPEDTAVYYCAARRYEPKAVYYWGQGTQVTVSS | high polyreactivity
13 | QVQLVESGGGLDQAGGSLRLSCAAYGSTFAPNAMGGYRQSPGKERELVAAISSGSSTYYADSVKGRFTISRDNAKNTVNLQMNSLKPEDTAVYYCIARGLSSLSTIEDYCGQGTQVTVSS | high polyreactivity
14 | QVQLVESGGGLVQAGGRLRLSCAASGNTFDYYAMGWYRPAPGKERELVAAITRGGSTNYADSVKGRFTISRDNAKNTVYLQMNSLKPEDTAVYYCAAEQRAPRFADYDYWGQGTQVTVSS | low polyreactivity
15 | QVQLQESGGVQAGGSLRLSCAASGYITRSDVMGSYRQAPGKERELVATINNGTMTYYADSEKGRYTISRDNAKKTVYLQKNSQKPEDTAVHYCAVDQSDTDSLYYWGQGTQVTVSS | low polyreactivity
16 | QVQLVESGGGLVQAGGSLRLSCAASGFTVAIYAMGWYRHAPGKERELVAAINRCGGSTYYADSVKGRFTISRDNAKNSVYLQMNSLKTEDTAVYYCNKRYRVWFDYWGQGTQVTVSS | high polyreactivity
17 | QVQLVESGGGLVQAGGSLRLRCAASGITFPNYAMGWYRQAPGKERELVAAISSGGSTTYADSVKGRFTISRDNAKNTVYLQMNSLKPEDTAVYYCNADISAHYVIGVPTGYYWGQGTQVTVSS | low polyreactivity
18 | QVQLVESGGGLVQSGGSLRLSCAASGRTFYNNAMGWYRQAPGKERELVATINNRGGTTYYADSVKGRFTISRDNAKNTVYLQMNSLKPEDTAVYYCANSAQRYSYRYYYWGQGTQVTVSS | high polyreactivity
19 | QVQLVESGGGLVQAGGSLRLSCAASGLTFAGYAMGWYRQAPGKERELVAAITSGGSTYYADSVKGRFTISRDNAKNTVYLQMNSLKPEDTAVYYCAARRVRKALVGYGYWGQGTQVTVSS | high polyreactivity
20 | QVQLVESGGGLVQAGGSLRLICAASGRIFYDNALGWYRQAPGKERELVAAISESGTSTYYADSVKGRFTISRDNAKNTVYLQMNSLKPEDTAVYYCAAYFTWNRKVFYYWGQGTQVTVSS | high polyreactivity
21 | QVQLVESGVGLVQAGGSLRLSCAASGRIFAPYAMGWYRQAPGKERELVAAIRWRGGSTSYADSVKGRFTISRDNAKNTVYLQMNSLKPEDTAVYYCNADYGFSFYWYDYWGQGTQVTVSS | low polyreactivity
22 | QVQLVESGGGLVQAGGSLRLSCAVSGRIFRRNVMGWYRQAPGKDRELVAGISDSGDSTYYADSVKVRFTISRDNAKNTVYLQMNSLKPEDTAVYYCNARYSTTYYGTIYRGMDYWGQGTQVNVSS | high polyreactivity

Row | Sequence | polyreactivity (PSR sort gate)
23 | QVQLVESGGGLVQAGVSLRLSCAASGSIFRYYAMGWYRQAPGKERELVAAITVGGSTYYADSVKGRFTISRDNAKNTVYLQMNSLKPEDTAVYYCAADGDKRTKGYDYWGQGTQVTVSS | high polyreactivity
24 | QVQLVESGGGLVQAGGSLRLSCAASGITFPGYAMGWYRQATGKERELVAVIRKSGTSTYYADSVKGRFTISRDTAKNTVYLQMNSLKPEDTAVYYCAAGGPSTLDDYWGQGTQVTVSS | low polyreactivity
25 | QVQLVESGGGLVQAGGSLRLSCAASGRIFRHYAMGWYRQAPGKERELVAAISGGGGRTYYADSVKGRFTISRDNAKNTVYLQMNSLKPEDTAVYYCAKRPSYAYSRYRKGHDYWGQGTQVTVSS | high polyreactivity
26 | QVQLVESGGGLVQAGGSLRLSCAASGVIFYRNAMGWYRQAPGKERELVATIRYSGGSTYYADSVKGRFTISRDNAKNTVYLEMNSLKPEDSAVYYCNARRWYLPRRSGYGYWGQGTVVTVSS | high polyreactivity
27 | QVQLVESGGGLVQAGGSLRLSCAASGRTFGYYVMGWSRQAPGKETELVAAISNTDSTYYADSVKGRFTISRDNAKNTVYLQMNSLKPEDTAVYYCARDDAYSDFDYDYWGQGTQVTVSS | low polyreactivity
28 | QVQLVESGGGLVQAGGSLRLSCADSGRTFKYYAMGWYRQAPGKARELVAAIRSTGGSKYYADSVKGRFTISRDNAKNTVYLQMNSLKPEDTAVYYCNARRYPRYVFSRYDYWGQGTQVTVSS | high polyreactivity
29 | QVQLVESGGGLVQAGGSLRLSCAASGSTFGSNAMGWYRQAPGKERELVAAIRGIVGSTYYADSVKGRFTISRDNAKNTVYLQMNSLKPEDTAVYYCNKAEVSTYYQTRSTYGGYDYWGQGTQVTVSS | low polyreactivity
30 | QVQVVESGGGLVQAGGSLRLSCAASGSIFATYAMGWYRQAPGKERELVAAITSSDGSTNYADSVKGRFTISRDNAKNTVYLQMNSLKPEDTAVYYCATDAPDRTDSDSGFDAGYDYWGQGTQVTLSS | low polyreactivity
31 | QVQLVESGGGLVQAGGSLRLSCAASGSIFYVYAMGWYRQAPGKERELVAAINTSGGSTFYADSVKGRFTISRDNAKNTVYLQMNSLKPEDTAVYYCAAERFRYRSTDTMGYWGQGTQVTVSS | low polyreactivity
32 | QVQLVESGGGLVQAGGSLRLSCAASGIIFRFYSMGWYRKEPGKERELVAAITSSGGSTYYADSEKGRFTISRDNAKNTVYLQMNSLKPEDSAVYYCATSTGPYRGRFYYWGQGTQVTGSS | high polyreactivity
33 | QVQLVESGGGLVQAGGSLRLSCAASGSIFTLNAMGWYRQATGKEREFVAAITLRSGSTYYADSVKGRFTISRDNAKNTVYLQMNSLKPEDTAVYYCAARRTRYIYYYWGQGTQVTVSS | high polyreactivity
34 | QVQLVESGGGLVQAGGSLRLSCAASGRIFPDYDMGWYRQAPGKERELVASISTRGGSTYADSVKGRFTISRDNAKNTVYLQMNSLKPEDTAVYYCATDGWKQSAYDYWGQGTQVTVSS | low polyreactivity
35 | QVQLVESGGGLVQAGGSLRLSCAASGRTFLYYAMGWYRQAPGKERELVAAISSGGSTNYADSVKGRFTISRDNAKNTVYLQMNSLIPEDTAVYDCNADYTSRETSDVIYEYDYWGQATQVTVSS | low polyreactivity
36 | QVQLVESGGGLVQAGGSLRLSCAASGITFQYYAMGWYRQAPGKERELVAAISSGGSTYYADSVKGRFTISRDNAKNTVYLQMNILKPEDTAVYYCAAKRVFFGLNYDYWGQGTQVTVSS | high polyreactivity
37 | QVQLVESGGGLDQAGGSLRLSCAASGFTFWYYAMGWYRQAPGKERYLVATISSSGGSTYYADSVKGRFTISRDTAMNTVYLQMNSLKPEDTAVYYCNADDNPVWEYDYWGQGTLVTVSS | low polyreactivity
38 | QVQLEESGGGLVQAGGSLRLSCAASGFTLRGYAMGWYRQAPGKERELVAAINGGGSTYYADSVKGRFTISRDNAKNTVYLQMNSLKPEDTAVYYCAVRIRKTAFRVLRYNYWGQGTQVTVSS | high polyreactivity
39 | QVQLVESGGGLVQAGGSLRLSCAASGYIFLRNAMGWSRQAPGKERELVAAIRRTGGSTYYADSVKGRFTISRDNAKNTVYLQMNSLKPEVTAVYYCAKRSYTGYEYWGQGTQVTVSS | low polyreactivity
40 | QVQLVESGGGLVQAGGSLRLSCAASGLILDGYAMGWYRQAPGKERELVAAITRSGGRTYYADSVKGRFTISRDNAKNTVYLQMNSLKPEDTAVYYCAALGWSGRYSYDYWGQGTQVTVSS | high polyreactivity
41 | QVLLVESGGGLVQAGGSLRLSCAASGRTFYWYAMGWYRQAPGKERELVAGISSGGGTYYADSVKGRFTISRDNAKNTVYLQMNSLKPEDTAVYYCAAASENIWVWQEYIEYDYWGQGTQVTVSS | low polyreactivity
42 | QVQLVESGGGLVQAGGSLRLSCAASGSTFIYYARGWYRQAPGKERELVASISRSGGSPYYADSVKGRFTISRDNAKNTVYLQMNSLKPEATAVYDCARAYRSSFNYWGQGTQVTVSS | high polyreactivity
43 | QVQLVESGGCLVQAGGSLRLSCAASGRIFTTNAMGWYRQAPGKERELVAAITYSGGTTYYADSVKGRFTISRDNAKKTVYLQMNSLKPEDTAVYYCAADVKFSTPYDYWGQGTQVTVSS | low polyreactivity
